Entries after “also recorded” stand apart in the source; their conditions may differ.

The values below come from patent US12433934B2, “Methods and compositions for preventing and treating atherosclerosis and related diseases” (Shanghai Puyou Biomedical Co., Ltd., priority 2018, dated 2025).

The test system of experiment [1] is human umbilical vein endothelial cells (HUVECs). Description: Uptake of DiL-oxLDL by HUVEC cells (fluorescence microscope, flow cytometry). The conditions noted are these: 10 μg/ml DiL-oxLDL, 5 h. The format is cell-based. On the procedure: Experimental materials: sDSS1 protein, DiL-oxLDL (Thermo Fisher technology, Article No.: L34358), human umbilical vein endothelial cell (HUVEC) (PromoCell, Article No.: C-12200).
Experimental method: HUVEC cells were inoculated into a 6-well plate with 300000 cells per well. After 24 h of adherence, 1.5 ml 10 μg/ml DiL-oxLDL was added, or 1.5 ml 10 μg/ml DiL-oxLDL was added together with 2 μg/ml, 5 μg/ml, 10 μg/ml or 20 μg/ml of the sDSS1 protein. After incubation for 5 h in an incubator, the fluorescence signal in the cells was observed by a fluorescence microscope. The cells were digested with trypsin to form single cells for detecting the fluorescence intensity via flow cytometry.
In general terms: Flow cytometry measures light scatter and fluorescence of single cells or particles in a stream.

In experiment [2] the test system is Hep G2 cells. Description: Uptake of DiL-oxLDL by Hep G2 cells (fluorescence microscope, flow cytometry). The experiment is classed as cell-based, human. The conditions noted are these: 9 h. As to the method:
(§1) Materials: sDSS1 protein, DiL-oxLDL, DiL-LDL (ThermoFisher, L3482), human hepatoma cell Hep G2 (Cell Bank of Typical Culture Preservation Committee of Chinese Academy of Sciences, Catalog Number: SCSP-510).
(§2) Experimental method: (1) When detecting the phagocytosis of oxLDL by Hep G2 cells, Hep G2 cells were inoculated into a 6-well plate with 250000 cells per well. After 12 h, all the cells were adhered. The old culture medium was discarded. 1.5 ml 10 μg/ml DiL-oxLDL was added, or 1.5 ml 10 μg/ml DiL-oxLDL was added together with 5 μg/ml and 50 μg/ml of the sDSS1 protein. After incubation for 9 h in the incubator, the fluorescence signal in the cells was observed by a fluorescence microscope. The cells were digested by trypsin to form single cells for detecting fluorescence intensity via flow cytometry. (2) When detecting the phagocytosis of LDL by Hep G2 cells, Hep G2 cells were inoculated into a 6-well plate with 250000 cells per well. After 12 h, all the cells were adhered. The old culture medium was discarded. 1.5 ml 10 μg/ml DiL-LDL was added, or 1.5 ml 10 μg/ml DiL-LDL was added together with 5 μg/ml and 50 μg/ml of the sDSS1 protein. After incubation for 10 h in the incubator, the fluorescence signal in the cells was observed by fluorescence microscope. The cells were digested by trypsin to form single cells for detecting fluorescence intensity via flow cytometry.

Experiment [3] relates to Hep G2 cells. Description: Uptake of DiL-LDL by Hep G2 cells (fluorescence microscope, flow cytometry). The conditions noted are these: 10 h. The format is cell-based, human. On the procedure:
as §1, §2

The next experiment concerns ApoE−/− mice. Description: Atherosclerotic plaques of the aorta (en face oil red O staining) in high-fat diet ApoE−/− mice. The format is in vivo. The conditions noted are these: 13 weeks. On the procedure:
FIGS. 15-16. The sDSS1 protein inhibits the formation of atherosclerotic plaques in ApoE−/− mice. […] At the end of the injection, the aorta was dissected for oil red O staining, and the area of plaques was calculated.
Experimental animals: ApoE−/− mice, 8-week-old, male, were purchased from Nanjing Biomedical Research Institute of Nanjing University. The experimental animals were housed in an animal room for one week before the experiment.
Experimental method: ApoE−/− mice were fed with high-fat diet containing 0.25% cholesterol starting from the age of 9 weeks. From the 10th week of high-fat diet feeding, the mice were randomly divided into three groups according to the total cholesterol level, with 10 mice in each group. […] At the 22nd week of high-fat diet feeding, that is, the 13th week of administration, the animals were executed and dissected, and the whole aorta was separated. The separated aorta was stained with en face oil red O to evaluate the formation of atherosclerotic plaques.

The mark [4] stands for this setting: 50 μg/ml sDSS1 protein, 10 μg/ml DiL-LDL.

B1: sDSS1 protein: sDSS1 protein produced by the company itself, purity more than 95%; sequence of human sDSS1 protein is SEQ ID NO:1 (protein, listed as Homo sapiens)
chain: MSEKKQPVDLGLLEEDDEFEEFPAEDWAGLDEDEDAHVWEDNWDDDNVEDDFSNQLRATVLLMILVCETPYGCYVLHQKGRMCSAFLCC
As for B1, the “Fluorescence within HUVEC cells (flow cytometry)” value in experiment [1] (2 μg/ml sDSS1 protein) and in experiment [1] (10 μg/ml sDSS1 protein) was “significantly weakened” each time. Moreover, in experiment [1] (2 μg/ml sDSS1 protein), the “Uptake of oxLDL by HUVEC cells (flow cytometry statistics)” value is reported as “reduced by half”. The “Concentration dependence of the reduction of fluorescence / oxLDL uptake in HUVEC cells” value in experiment [1] (2, 5, 10, 20 μg/ml sDSS1 protein) is “concentration-dependent; also recorded: gradually weakened; also recorded: obviously dose-dependent”. The “DiL fluorescence level within Hep G2 cells, DiL-oxLDL (flow cytometry)” value in the experiment with Hep G2 cells [2] (5 μg/ml sDSS1, 10 μg/ml DiL-oxLDL) is reported as “does not significantly affect; also recorded: did not significantly affect”. For the same molecule, in the experiment with Hep G2 cells [2] (50 μg/ml sDSS1 protein, 10 μg/ml DiL-oxLDL), the “DiL signal intensity in Hep G2 cells, DiL-oxLDL (flow cytometry)” value is listed as “significantly increase”. For the same molecule, the “Intensity of Dil fluorescence in Hep G2 cells, DiL-LDL (flow cytometry)” value with Hep G2 cells [3] (5 μg/ml sDSS1, 10 μg/ml DiL-LDL) was “basically consistent”; with Hep G2 cells [3] (5 μg/ml sDSS1, 10 μg/ml DiL-LDL, listed as sDSS1), “could not cause significant changes”; in the experiment with Hep G2 cells [3] (setting [4]) it was “basically consistent; also recorded: could not cause significant changes”. Besides, the “Quantity of Hep G2 cells uptaking DiL-LDL (fluorescence microscope)” value in the experiment with Hep G2 cells [3] (5 μg/ml sDSS1 protein, 10 μg/ml DiL-LDL) is reported as “not changed significantly”; in the experiment on Hep G2 cells [3] (5 μg/ml sDSS1 protein, 10 μg/ml DiL-LDL, listed as sDSS1), “no significant difference”; in the experiment on Hep G2 cells [3] (setting [4]), “not changed significantly”; with Hep G2 cells [3] (50 μg/ml sDSS1 protein, 10 μg/ml DiL-LDL, listed as sDSS1), “no significant difference”. Also, in the experiment with ApoE−/− mice (sDSS1 3 mg/kg intraperitoneal once a day, high-fat diet), the “Area of atherosclerotic plaques (en face oil red O) vs model group” value was “significantly reduced”. Besides, in the experiment with ApoE−/− mice (sDSS1 3 mg/kg intraperitoneal once a day, **P<0.01), the “Plaque area ratio (oil red O stained area / total aortic area) vs model group” value is listed as “significantly smaller”. Also, the “Plaque area ratio, sDSS1 protein group vs positive drug group” value in the experiment on ApoE−/− mice (sDSS1 3 mg/kg vs ATV 40 mg/kg) is “no significant difference”. Moreover, in the experiment on ApoE−/− mice (sDSS1 3 mpk vs ATV 40 mpk), the “Effect on plaque area in certain areas of the aorta vs positive drug” value was “even better”.
